# Bridges are numbered along the chain shown (N, C = ends). Primed or numbered codes have the meaning given here. Where no end group is shown, it is not given here. The star is where a group is joined. DOTA = O=C(O)CN1CCN(CC(=O)O)CCN(CC(=O)*)CCN(CC(=O)O)CC1; PEG12′ = not defined here
# T1: Human Nectin-4 (human, UniProt Q96NY8 32-349, limits assumed)
# T1 construct: Protein immobilised on the SPR chip; also called target protein
# T1 sequence: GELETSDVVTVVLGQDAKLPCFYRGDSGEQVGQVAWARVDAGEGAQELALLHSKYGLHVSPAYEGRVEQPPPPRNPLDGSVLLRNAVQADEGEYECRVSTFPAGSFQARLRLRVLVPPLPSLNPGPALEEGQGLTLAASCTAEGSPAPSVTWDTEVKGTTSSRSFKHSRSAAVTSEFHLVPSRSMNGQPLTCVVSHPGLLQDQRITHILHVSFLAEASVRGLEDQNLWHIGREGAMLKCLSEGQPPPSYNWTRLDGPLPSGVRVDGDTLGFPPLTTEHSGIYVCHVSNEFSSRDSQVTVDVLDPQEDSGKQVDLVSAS
# Target: T1, Human Nectin-4
# Experiment: Table 2B (DELFIA or SPR)
row,Binder,Kd [nM]
1,"Ac-CEYDEEFFAGLKRLRGGDICYYIKKKFPKVPDLCIEEILDKLGC-OH (designed binder, disulfide 1-34, 20-44) [C19]",10.8
2,"Ac-CEYDEEFFAGLHRLRGGDICYYIKKKFDKVPDLCIEEILDKLGC-OH (designed binder, disulfide 1-34, 20-44) [C20]",22.1
3,"Ac-CEYDEEFFAGLHRLRGGDICYYIKKKFPKVPDLCIEEILDKLGC-OH (designed binder, disulfide 1-34, 20-44) [C21]",49.4
4,"Ac-CEYDEEFFAGLKRLRGTDICYYIKKKFDKVPDLCIEEILDKLGC-OH (designed binder, disulfide 1-34, 20-44) [C22]",12.8
5,"Ac-CEYDEEFFAGLHRLRGTDICYYIKKKFDKVPDLCIEEILDKLGC-OH (designed binder, disulfide 1-34, 20-44) [C23]",18.5
6,"Ac-CEYDEEFFAGLHRLRGTDICYYIKKKFPKVPDLCIEEILDKLGC-OH (designed binder, disulfide 1-34, 20-44) [C24]",84.4
7,"Ac-CEYDEEFFKGLKRLRGGDICYYIKKKFKKVPDLCIEEILDKLGC-OH (designed binder, disulfide 1-34, 20-44) [C25]",3.75
8,"Ac-CEYDEEFFEGLKRLRGGDICYYIKKKFKKVPDLCIEEILDKLGC-OH (designed binder, disulfide 1-34, 20-44) [C26]",5.04
9,"Ac-CEYDEEFFDGLKRLRGGDICYYIKKKFKKVPDLCIEEILDKLGC-OH (designed binder, disulfide 1-34, 20-44) [C27]",9.85
10,"Ac-CEYDEEFFSGLKRLRGGDICYYIKKKFKKVPDLCIEEILDKLGC-OH (designed binder, disulfide 1-34, 20-44) [C28]",5.29
11,"Ac-CEYDEEFFTGLKRLRGGDICYYIKKKFKKVPDLCIEEILDKLGC-OH (designed binder, disulfide 1-34, 20-44) [C29]",3.91
12,"Ac-CEYDEEFFEGLKKLRGGDICYYIKKKFKKVPDLCIEEILDKLGC-OH (designed binder, disulfide 1-34, 20-44) [C30]",24.9
13,"Ac-CEYDEEFFTGLKRLRGGDICYYIKKKFKKVPKLCIEEILDKLGC-OH (designed binder, disulfide 1-34, 20-44) [C31]",1.31
14,"Ac-CEYDEEFFTGLKRLRGGDICYYIKKKFKKVPELCIEEILDKLGC-OH (designed binder, disulfide 1-34, 20-44) [C32]",3.26
15,"Ac-CEYDEEFFQGLKRLRGGDICYYIKKKFKKVPDLCIEEILDKLGC-OH (designed binder, disulfide 1-34, 20-44) [C33]",3.47
16,"Ac-CEYDEEFFLGLKRLRGGDICYYIKKKFKKVPDLCIEEILDKLGC-OH (designed binder, disulfide 1-34, 20-44) [C34]",3.17
17,"Ac-CEYDEEFFTGLKRLRGGTICYYIKKKFKKVPDLCIEEILDKLGC-OH (designed binder, disulfide 1-34, 20-44) [C41]",5.6

row,Binder,Kd [nM]
1,"Ac-CEYDEEFFTGLKRLRGGDICYYIKKKFKKVPDLCIEEILKKLGC-OH (designed binder, disulfide 1-34, 20-44) [C44]",3.14
2,"Ac-CEYDEEFFTGLKRLRGGDICYYIKKKFKKVPDLCIEEILEKLGC-OH (designed binder, disulfide 1-34, 20-44) [C45]",3.29
3,"Ac-CEYDEKFFTGLKRLRGGDICYYIKKKFKKVPDLCIEEILDKLGC-OH (designed binder, disulfide 1-34, 20-44) [C46]",2.28
4,"Ac-CEYDEQFFTGLKRLRGGDICYYIKKKFKKVPDLCIEEILDKLGC-OH (designed binder, disulfide 1-34, 20-44) [C49]",1.93
5,"{DOTA-PEG12′}-CEYDEEFFAGLKRLRGGDICYYIKKKFDKVPDLCIEEILDKLGC-OH (designed binder, disulfide 1-34, 20-44) [C51]",8.37
6,"Ac-CEYDEEFFTDLKRLRGGDICYYIKKKFKKVPKLCIEEILDKLGC-OH (designed binder, disulfide 1-34, 20-44) [C52]",5.24
7,"Ac-CEYDEEFFTTLKRLRGGDICYYIKKKFKKVPKLCIEEILDKLGC-OH (designed binder, disulfide 1-34, 20-44) [C55]",3.39
8,"Ac-CEYDEEFFTLLKRLRGGDICYYIKKKFKKVPKLCIEEILDKLGC (designed binder, disulfide 1-34, 20-44) [C56]",3.88
9,"Ac-CEYDEEFFTALKRLRGGDICYYIKKKFKKVPKLCIEEILDKLGC-OH (designed binder, disulfide 1-34, 20-44) [C57]",0.29
10,"Ac-CEYDEEFFLGLKRLRGGDICYYIKKKFKKVPKLCIEEILDKLGC-OH (designed binder, disulfide 1-34, 20-44) [C58]",1.81
11,"Ac-CEYDEEFFLGLKRLRGGDICYYIKKKFKKVPDLCIEEILEKLGC-OH (designed binder, disulfide 1-34, 20-44) [C60]",3.17
12,"Ac-CEYDEEFFLGLKRLRGGDICYYIKKKFKKVPKLCIEEILEKLGC-OH (designed binder, disulfide 1-34, 20-44) [C61]",1.79
13,"Ac-CEYDEEFFLGLKRLRGGDICYYIKKKFKKVPKLCIEEILKKLGC-OH (designed binder, disulfide 1-34, 20-44) [C63]",1.97
14,"Ac-CEYDEEFFLGLKRLRGGDICYYIKKKFKKVPDLCIEEILKKLGC-OH (designed binder, disulfide 1-34, 20-44) [C64]",3.8
15,"Ac-CEYDEEFFTGLKRLRGGDICYYIKKKFKKVPELCIEEILKKLGC-OH (designed binder, disulfide 1-34, 20-44) [C65]",2.21
16,"Ac-CEYDEEFFTGLKRLRGGDICYYIKKKFKKVPELCIEEILEKLGC-OH (designed binder, disulfide 1-34, 20-44) [C66]",2.63

# — US20260151519A1 (AKTIS ONCOLOGY, published 2026)
